This is an account of results in paper PMC3718980 (The Journal of Cell Biology, 2013).

Substitutions are numbered along the chain they refer to.

In experiment [1] the target is microtubules (polymerized with GMPCPP, in taxol). In words: co-sedimentation.
Experiment [2] has as its target T1, GST-CERMAD of wild-type Moesin (residues 483–578) (Drosophila melanogaster, UniProt P46150 483-578).
T1 sequence (looked up): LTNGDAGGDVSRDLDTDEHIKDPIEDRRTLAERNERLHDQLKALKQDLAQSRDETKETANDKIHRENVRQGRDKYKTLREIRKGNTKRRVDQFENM
In words: pull-down.

For experiment [3], the target named is microtubules (polymerized with GMPCPP, in taxol). In words: co-sedimentation. The source holds these as a separate data set.

Consider “Moesin1–559 (Drosophila Moesin with the C-terminal 19 amino acids deleted) (from UniProt P46150 1-559) (domain or fragment)”, for which the Kd (as a rule, the concentration at which binding is half-saturated) in experiment [1] was determined as 1900 nM.

B1: FERM domain of Drosophila Moesin, wild type (domain or fragment, Drosophila melanogaster, UniProt P46150 1-296, looked up)
chain: MSPKALNVRVTTMDAELEFAIQSTTTGKQLFDQVVKTIGLREVWFFGLQYTDSKGDSTWIKLYKKVMNQDVKKENPLQFRFRAKFYPEDVAEELIQDITLRLFYLQVKNAILTDEIYCPPETSVLLASYAVQARHGDHNKTTHTAGFLANDRLLPQRVIDQHKMSKDEWEQSIMTWWQEHRSMLREDAMMEYLKIAQDLEMYGVNYFEIRNKKGTDLWLGVDALGLNIYEQDDRLTPKIGFPWSEIRNISFSEKKFIIKPIDKKAPDFMFFAPRVRINKRILALCMGNHELYMRRR
Take B1: the stoichiometry N (as a rule, the number of molecules, sites or subunits per partner or assembly) in experiment [2] worked out at 1.

B2: FERM-K212,213M of Drosophila Moesin (domain or fragment, Drosophila melanogaster, UniProt P46150 1-296, looked up)
chain: B1 chain with K212M, K213M
Turning to B2, the “stoichiometry N” value in experiment [2] came to 1. Moreover, the fold reduction in the apparent Kd against FERM wild type in experiment [3] was found to be 3.6 fold.
